Experimental data from publication PMC4046141, “Exploring the evolutionary route of the acquisition of betaine aldehyde dehydrogenase activity by plant ALDH10 enzymes: implications for the synthesis of the osmoprotectant glycine betaine” (BMC Plant Biology, 2014).

What was measured:
[1] = substrate: C[N+](C)(C)CC=O; assay: purified protein; conditions: 0.2 mM NAD+, 50 mM HEPES-KOH pH 8.0, 0.1 mM EDTA, 30 °C, apparent
[2] = substrate: NCCC=O; assay: spectrophotometric initial velocity, fit to substrate-inhibition equation; format: biochemical, Spinacia oleracea; conditions: 0.2 mM NAD+, 50 mM HEPES-KOH pH 8.0, 0.1 mM EDTA, 30 °C, apparent
Description: spectrophotometric initial velocity, fit to substrate-inhibition equation on SoBADH

[3] = substrate: NC(=O)c1ccc[n+]([C@@H]2O[C@H](COP(=O)(O)OP(=O)(O)OC[C@H]3O[C@@H](n4cnc5c(N)ncnc54)[C@H](O)[C@@H]3O)[C@@H](O)[C@H]2O)c1; assay: spectrophotometric initial velocity, Michaelis-Menten fit; format: biochemical, Spinacia oleracea; conditions: fixed BAL at least 10x its Km, 50 mM HEPES-KOH pH 8.0, 0.1 mM EDTA, 30 °C, apparent, varied: cofactor
Description: spectrophotometric initial velocity, Michaelis-Menten fit on SoBADH

B1: SoBADH (Spinacia oleracea; A441F) (protein)
chain: MAFPIPARQLFIDGEWREPIKKNRIPVINPSTEEIIGDIPAATAEDVEVAVVAARRAFRRNNWSATSGAHRATYLRAIAAKITEKKDHFVKLETIDSGKPFDEAVLDIDDVASCFEYFAGQAEALDGKQKAPVTLPMERFKSHVLRQPLGVVGLISPWNYPLLMATWKIAPALAAGCTAVLKPSELASVTCLEFGEVCNEVGLPPGVLNILTGLGPDAGAPLVSHPDVDKIAFTGSSATGSKVMASAAQLVKPVTLELGGKSPIVVFEDVDIDKVVEWTIFGCFWTNGQICSATSRLLVHESIAAEFVDKLVKWTKNIKISDPFEEGCRLGPVISKGQYDKIMKFISTAKSEGATILYGGSRPEHLKKGYYIEPTIVTDISTSMQIWKEEVFGPVLCVKTFSSEDEAIALANDTEYGLAAAVFSNDLERCERITKALEVGFVWVNCSQPCFVQAPWGGIKRSGFGRELGEWGIQNYLNIKQVTQDISDEPWGWYKSP
notes: native homodimer
Km [1]: 605 ± 26 µM
kcat [1]: 0.29 s⁻¹
kcat/Km [1]: 480 M⁻¹ s⁻¹
Km [2]: 3.7 ± 0.0 µM
kcat [2]: 0.34 ± 0.04 s⁻¹
kcat/Km [2]: 92000 ± 11000 M⁻¹ s⁻¹

B2: SoBADH (Spinacia oleracea; A441S) (protein)
chain: MAFPIPARQLFIDGEWREPIKKNRIPVINPSTEEIIGDIPAATAEDVEVAVVAARRAFRRNNWSATSGAHRATYLRAIAAKITEKKDHFVKLETIDSGKPFDEAVLDIDDVASCFEYFAGQAEALDGKQKAPVTLPMERFKSHVLRQPLGVVGLISPWNYPLLMATWKIAPALAAGCTAVLKPSELASVTCLEFGEVCNEVGLPPGVLNILTGLGPDAGAPLVSHPDVDKIAFTGSSATGSKVMASAAQLVKPVTLELGGKSPIVVFEDVDIDKVVEWTIFGCFWTNGQICSATSRLLVHESIAAEFVDKLVKWTKNIKISDPFEEGCRLGPVISKGQYDKIMKFISTAKSEGATILYGGSRPEHLKKGYYIEPTIVTDISTSMQIWKEEVFGPVLCVKTFSSEDEAIALANDTEYGLAAAVFSNDLERCERITKALEVGSVWVNCSQPCFVQAPWGGIKRSGFGRELGEWGIQNYLNIKQVTQDISDEPWGWYKSP
notes: native homodimer
Km [3]: 29 ± 3 µM
kcat [3]: 3.27 ± 0.18 s⁻¹
kcat/Km [3]: 114000 ± 20000 M⁻¹ s⁻¹
Km [1]: 119 ± 8 µM
kcat [1]: 3.29 s⁻¹
kcat/Km [1]: 28000 M⁻¹ s⁻¹
Km [2]: 2.0 ± 0.5 µM
kcat [2]: 1.12 s⁻¹
kcat/Km [2]: 550000 ± 142000 M⁻¹ s⁻¹

B3: SoBADH (Spinacia oleracea; A441V) (protein)
chain: MAFPIPARQLFIDGEWREPIKKNRIPVINPSTEEIIGDIPAATAEDVEVAVVAARRAFRRNNWSATSGAHRATYLRAIAAKITEKKDHFVKLETIDSGKPFDEAVLDIDDVASCFEYFAGQAEALDGKQKAPVTLPMERFKSHVLRQPLGVVGLISPWNYPLLMATWKIAPALAAGCTAVLKPSELASVTCLEFGEVCNEVGLPPGVLNILTGLGPDAGAPLVSHPDVDKIAFTGSSATGSKVMASAAQLVKPVTLELGGKSPIVVFEDVDIDKVVEWTIFGCFWTNGQICSATSRLLVHESIAAEFVDKLVKWTKNIKISDPFEEGCRLGPVISKGQYDKIMKFISTAKSEGATILYGGSRPEHLKKGYYIEPTIVTDISTSMQIWKEEVFGPVLCVKTFSSEDEAIALANDTEYGLAAAVFSNDLERCERITKALEVGVVWVNCSQPCFVQAPWGGIKRSGFGRELGEWGIQNYLNIKQVTQDISDEPWGWYKSP
notes: native homodimer
Km [3]: 6.4 ± 0.5 µM
kcat [3]: 0.51 s⁻¹
kcat/Km [3]: 80000 ± 5000 M⁻¹ s⁻¹
Km [1]: 512 ± 79 µM
kcat [1]: 0.54 s⁻¹
kcat/Km [1]: 1100 M⁻¹ s⁻¹
Km [2]: 1.1 ± 0.3 µM
kcat [2]: 0.52 ± 0.1 s⁻¹
kcat/Km [2]: 473000 ± 216000 M⁻¹ s⁻¹

B4: SoBADH (Spinacia oleracea) (protein)
chain: MAFPIPARQLFIDGEWREPIKKNRIPVINPSTEEIIGDIPAATAEDVEVAVVAARRAFRRNNWSATSGAHRATYLRAIAAKITEKKDHFVKLETIDSGKPFDEAVLDIDDVASCFEYFAGQAEALDGKQKAPVTLPMERFKSHVLRQPLGVVGLISPWNYPLLMATWKIAPALAAGCTAVLKPSELASVTCLEFGEVCNEVGLPPGVLNILTGLGPDAGAPLVSHPDVDKIAFTGSSATGSKVMASAAQLVKPVTLELGGKSPIVVFEDVDIDKVVEWTIFGCFWTNGQICSATSRLLVHESIAAEFVDKLVKWTKNIKISDPFEEGCRLGPVISKGQYDKIMKFISTAKSEGATILYGGSRPEHLKKGYYIEPTIVTDISTSMQIWKEEVFGPVLCVKTFSSEDEAIALANDTEYGLAAAVFSNDLERCERITKALEVGAVWVNCSQPCFVQAPWGGIKRSGFGRELGEWGIQNYLNIKQVTQDISDEPWGWYKSP
notes: native homodimer
Km [3]: 22 ± 2 µM
kcat [3]: 4.25 ± 0.16 s⁻¹
kcat/Km [3]: 195000 ± 8000 M⁻¹ s⁻¹
Km [1]: 98 ± 15 µM
kcat [1]: 3.36 s⁻¹
kcat/Km [1]: 35000 M⁻¹ s⁻¹
Km [2]: 3.9 ± 0.1 µM
kcat [2]: 0.99 ± 0.04 s⁻¹
kcat/Km [2]: 256000 ± 5000 M⁻¹ s⁻¹

B5: SoBADH (Spinacia oleracea; A441T) (protein)
chain: MAFPIPARQLFIDGEWREPIKKNRIPVINPSTEEIIGDIPAATAEDVEVAVVAARRAFRRNNWSATSGAHRATYLRAIAAKITEKKDHFVKLETIDSGKPFDEAVLDIDDVASCFEYFAGQAEALDGKQKAPVTLPMERFKSHVLRQPLGVVGLISPWNYPLLMATWKIAPALAAGCTAVLKPSELASVTCLEFGEVCNEVGLPPGVLNILTGLGPDAGAPLVSHPDVDKIAFTGSSATGSKVMASAAQLVKPVTLELGGKSPIVVFEDVDIDKVVEWTIFGCFWTNGQICSATSRLLVHESIAAEFVDKLVKWTKNIKISDPFEEGCRLGPVISKGQYDKIMKFISTAKSEGATILYGGSRPEHLKKGYYIEPTIVTDISTSMQIWKEEVFGPVLCVKTFSSEDEAIALANDTEYGLAAAVFSNDLERCERITKALEVGTVWVNCSQPCFVQAPWGGIKRSGFGRELGEWGIQNYLNIKQVTQDISDEPWGWYKSP
notes: native homodimer
Km [1]: 180 ± 6 µM
kcat [1]: 2.64 s⁻¹
kcat/Km [1]: 15000 M⁻¹ s⁻¹
Km [2]: 4.6 ± 0.5 µM
kcat [2]: 1.5 ± 0.12 s⁻¹
kcat/Km [2]: 326000 ± 13000 M⁻¹ s⁻¹
